Patent publication US20210079088A1 (published 2021)

T1: soluble human IL-4Rα (sIL-4Rα; PEPRO TECH, Catalog Number: 200-04R) (human, UniProt P24394 26-232)
T1 construct: Bought protein; also called shIL-4Rα; soluble hIL-4 Rα
T1 sequence: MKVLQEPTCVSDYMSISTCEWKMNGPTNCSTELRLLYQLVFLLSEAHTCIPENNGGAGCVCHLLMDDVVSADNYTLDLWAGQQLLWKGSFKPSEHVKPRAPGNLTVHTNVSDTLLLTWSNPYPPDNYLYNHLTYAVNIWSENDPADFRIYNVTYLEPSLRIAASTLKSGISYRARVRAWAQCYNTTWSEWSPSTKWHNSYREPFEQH


Each binder was assayed against T1, soluble human IL-4Rα (sIL-4Rα; PEPRO …) (assay: ELISA, coated sIL-4Rα, culture supernatant).
Method: Sample to be tested: For each antibody of the present invention, 10 μl and 2 μl of the culture supernatant of Expi293 cells expressing the antibody after transient transfection (the medium was Expi293 Expression Medium, Invitrogen, Catalog Number: A1435102; suspension culture was performed for 4 days at 100 rpm in a 8% CO2 incubator) were respectively added to 990 μl and 998 μl of PBS to prepare antibody samples to be tested of 1:100 and 1:500 dilutions.
100 μl of 100 μg/ml sIL-4Rα solution was added to 9.90 ml of PBS, mixed up and down, and then an antigen coating buffer of 1.0 μg/ml was obtained. The prepared antigen coating buffer was added to a 96-well ELISA plate (Corning) with a volume of 100 μl per well. The 96-well ELISA plate was incubated overnight in a refrigerator at 4° C. On the next day, the solution therein was discarded, and PBS containing 2% BSA was added to the 96-well ELISA plate row by row with a volume of 300 μl per well. The 96-well ELISA plate was incubated for 2 hours in a refrigerator at 4° C. Then the PBS containing 2% BSA was discarded and the plate was washed 3 times with PBST. Diluted antibodies to be tested were sequentially added to the corresponding wells, while the normal cell culture supernatants, as negative control samples, were added too. Three duplicate wells were made for each sample with a volume of 100 μl per well. The ELISA plate was wrapped with preservative film (or covered) and incubated for 1 h at 10° C. in a constant temperature incubator. Subsequently, the 96-well ELISA plate was taken out, and the solution therein was discarded. After washing with PBST for 3 times, TMB solution (Solarbio, Catalog Number: PR1200) was added to the 96-well ELISA plate row by row with a volume of 100 μl per well. The 96-well ELISA plate was placed at room temperature for 5 minutes, and 2 M H2SO4 solution was added in immediately to terminate the reaction. The 96-well ELISA plate was placed in flexstation 3 (Molecular Devices), the values of OD450 were read, and the data were collected, calculated and analyzed. Results were expressed relative to the affinity of control antibody 1.

Binder	OD450/OD450 Control antibody 1
L1020H1007 (antibody, V domains shown) VH: EVQLVQSGGGLVHPGGSLRLSCAGSGFTFSRNAMFWVRQAPGKGLEWVSGIGTGGATSYADSVKGRFTISRDNAKNSLYLQMNSLRAEDMAVYYCARGRYYFDYWGQGTLVTVSS VL: EIVLTQSPGTLSLSPGERATLSCRASQSVSSSYLAWYQQKPGQAPRLLIYGASSRATGIPDRFSGSGSGTDFTLTISRLEPEDFAVYYCQQYDHSAGWTFGQGTKVEIK	0.4 ratio to control antibody 1
L1020H1029 (antibody, V domains shown) VH: EVQLVESGGGLVQPGGSLRLSCAASGFTFSRNAMFWVRQAPGKGLEWVSGIGTGGATSYADSVKGRFTISRDNAKNSLYLQMNSLRAEDMAVYYCARGRYYFPWWGQGTLVTVSS VL: EIVLTQSPGTLSLSPGERATLSCRASQSVSSSYLAWYQQKPGQAPRLLIYGASSRATGIPDRFSGSGSGTDFTLTISRLEPEDFAVYYCQQYDHSAGWTFGQGTKVEIK	1.01 ratio to control antibody 1
L1021H1000 (antibody, V domains shown) VH: EVQLVQSGGGLVHPGGSLRLSCAGSGFTFSRNAMFWVRQAPGKGLEWVSGIGTGGATNYADSVKGRFTISRDNAKNSLYLQMNSLRAEDMAVYYCARGRYYFDYWGQGTLVTVSS VL: EIVLTQSPGTLSLSPGERATLSCRASQSVSSSYLAWYQQKPGQAPRLLIFGASSRAPGIPDRFSGSGSGTDFTLTISRLEPEDFAVYYCQQYDHSAGWTFGQGTKVEIK	2.42 ratio to control antibody 1
L1020H1027 (antibody, V domains shown) VH: EVQLVESGGGLVHPGGSLRLSCAASGFTFSRNAMFWVRQAPGKGLEWVSGIGTGGATSYADSVKGRFTISRDNAKNSLYLQMNSLRAEDTAVYYCARGRYYFPWWGQGTLVTVSS VL: EIVLTQSPGTLSLSPGERATLSCRASQSVSSSYLAWYQQKPGQAPRLLIYGASSRATGIPDRFSGSGSGTDFTLTISRLEPEDFAVYYCQQYDHSAGWTFGQGTKVEIK	0.4 ratio to control antibody 1
L1020H1031 (antibody, V domains shown) VH: EVQLVESGGGLVQPGGSLRLSCAASGFTFSRNAMFWVRQAPGKGLEWVSGIGTGGATSYADSVKGRFTISRDNAKNSLYLQMNSLRAEDTAVYYCARGRYYFDYWGQGTLVTVSS VL: EIVLTQSPGTLSLSPGERATLSCRASQSVSSSYLAWYQQKPGQAPRLLIYGASSRATGIPDRFSGSGSGTDFTLTISRLEPEDFAVYYCQQYDHSAGWTFGQGTKVEIK	1.12 ratio to control antibody 1
L1021H1020 (antibody, V domains shown) VH: EVQLVQSGGGLVHPGGSLRLSCAGSGFTFSRNAMFWVRQAPGKGLEWVSGIGTGGATSYADSVKGRFTISRDNAKNSLYLQMNSLRAEDMAVYYCARGRYYFPWWGQGTLVTVSS VL: EIVLTQSPGTLSLSPGERATLSCRASQSVSSSYLAWYQQKPGQAPRLLIFGASSRAPGIPDRFSGSGSGTDFTLTISRLEPEDFAVYYCQQYDHSAGWTFGQGTKVEIK	0.24 ratio to control antibody 1
L1020H1020 (antibody, V domains shown) VH: EVQLVQSGGGLVHPGGSLRLSCAGSGFTFSRNAMFWVRQAPGKGLEWVSGIGTGGATSYADSVKGRFTISRDNAKNSLYLQMNSLRAEDMAVYYCARGRYYFPWWGQGTLVTVSS VL: EIVLTQSPGTLSLSPGERATLSCRASQSVSSSYLAWYQQKPGQAPRLLIYGASSRATGIPDRFSGSGSGTDFTLTISRLEPEDFAVYYCQQYDHSAGWTFGQGTKVEIK	0.26 ratio to control antibody 1
L1021H1016 (antibody, V domains shown) VH: EVQLVQSGGGLVHPGGSLRLSCAGSGFTFSRNAMFWVRQAPGKGLEWVSGIGTGGATNYADSVKGRFTISRDNAKNSLYLQMNSLRAEDMAVYYCARGRYYFPWWGQGTLVTVSS VL: EIVLTQSPGTLSLSPGERATLSCRASQSVSSSYLAWYQQKPGQAPRLLIFGASSRAPGIPDRFSGSGSGTDFTLTISRLEPEDFAVYYCQQYDHSAGWTFGQGTKVEIK	0.63 ratio to control antibody 1
L1020H1016 (antibody, V domains shown) VH: EVQLVQSGGGLVHPGGSLRLSCAGSGFTFSRNAMFWVRQAPGKGLEWVSGIGTGGATNYADSVKGRFTISRDNAKNSLYLQMNSLRAEDMAVYYCARGRYYFPWWGQGTLVTVSS VL: EIVLTQSPGTLSLSPGERATLSCRASQSVSSSYLAWYQQKPGQAPRLLIYGASSRATGIPDRFSGSGSGTDFTLTISRLEPEDFAVYYCQQYDHSAGWTFGQGTKVEIK	0.8 ratio to control antibody 1
L1021H1007 (antibody, V domains shown) VH: EVQLVQSGGGLVHPGGSLRLSCAGSGFTFSRNAMFWVRQAPGKGLEWVSGIGTGGATSYADSVKGRFTISRDNAKNSLYLQMNSLRAEDMAVYYCARGRYYFDYWGQGTLVTVSS VL: EIVLTQSPGTLSLSPGERATLSCRASQSVSSSYLAWYQQKPGQAPRLLIFGASSRAPGIPDRFSGSGSGTDFTLTISRLEPEDFAVYYCQQYDHSAGWTFGQGTKVEIK	0.44 ratio to control antibody 1

Next, values leading:

OD450/OD450 Control antibody 1	Binder
0.9 ratio to control antibody 1	L1021H1031 (antibody, V domains shown) VH: EVQLVESGGGLVQPGGSLRLSCAASGFTFSRNAMFWVRQAPGKGLEWVSGIGTGGATSYADSVKGRFTISRDNAKNSLYLQMNSLRAEDTAVYYCARGRYYFDYWGQGTLVTVSS VL: EIVLTQSPGTLSLSPGERATLSCRASQSVSSSYLAWYQQKPGQAPRLLIFGASSRAPGIPDRFSGSGSGTDFTLTISRLEPEDFAVYYCQQYDHSAGWTFGQGTKVEIK
1 ratio to control antibody 1	L1021H1029 (antibody, V domains shown) VH: EVQLVESGGGLVQPGGSLRLSCAASGFTFSRNAMFWVRQAPGKGLEWVSGIGTGGATSYADSVKGRFTISRDNAKNSLYLQMNSLRAEDMAVYYCARGRYYFPWWGQGTLVTVSS VL: EIVLTQSPGTLSLSPGERATLSCRASQSVSSSYLAWYQQKPGQAPRLLIFGASSRAPGIPDRFSGSGSGTDFTLTISRLEPEDFAVYYCQQYDHSAGWTFGQGTKVEIK
0.29 ratio to control antibody 1	L1021H1027 (antibody, V domains shown) VH: EVQLVESGGGLVHPGGSLRLSCAASGFTFSRNAMFWVRQAPGKGLEWVSGIGTGGATSYADSVKGRFTISRDNAKNSLYLQMNSLRAEDTAVYYCARGRYYFPWWGQGTLVTVSS VL: EIVLTQSPGTLSLSPGERATLSCRASQSVSSSYLAWYQQKPGQAPRLLIFGASSRAPGIPDRFSGSGSGTDFTLTISRLEPEDFAVYYCQQYDHSAGWTFGQGTKVEIK
0.16 ratio to control antibody 1	L1022H1000 (antibody, V domains shown) VH: EVQLVQSGGGLVHPGGSLRLSCAGSGFTFSRNAMFWVRQAPGKGLEWVSGIGTGGATNYADSVKGRFTISRDNAKNSLYLQMNSLRAEDMAVYYCARGRYYFDYWGQGTLVTVSS VL: EIVLTQSPGTLSLSPGERATLSCRASQSVSNSYLAWYQQKPGQAPRLLIYGASSRATGIPDRFSGSGSGTDFTLTISRLEPEDFAVYYCQQYDHSAGWTFGQGTKVEIK
0.9 ratio to control antibody 1	L1024H1031 (antibody, V domains shown) VH: EVQLVESGGGLVQPGGSLRLSCAASGFTFSRNAMFWVRQAPGKGLEWVSGIGTGGATSYADSVKGRFTISRDNAKNSLYLQMNSLRAEDTAVYYCARGRYYFDYWGQGTLVTVSS VL: EIVLTQSPGTLSLSPGERATLSCRASQSVSNSYLAWYQQKPGQAPRLLIFGASSRAPGIPDRFSGSGSGTDFTLTISRLEPEDFAVYYCQQYDHSAGWTFGQGTKVEIK
0.69 ratio to control antibody 1	L1024H1000 (antibody, V domains shown) VH: EVQLVQSGGGLVHPGGSLRLSCAGSGFTFSRNAMFWVRQAPGKGLEWVSGIGTGGATNYADSVKGRFTISRDNAKNSLYLQMNSLRAEDMAVYYCARGRYYFDYWGQGTLVTVSS VL: EIVLTQSPGTLSLSPGERATLSCRASQSVSNSYLAWYQQKPGQAPRLLIFGASSRAPGIPDRFSGSGSGTDFTLTISRLEPEDFAVYYCQQYDHSAGWTFGQGTKVEIK
0.23 ratio to control antibody 1	L1024H1007 (antibody, V domains shown) VH: EVQLVQSGGGLVHPGGSLRLSCAGSGFTFSRNAMFWVRQAPGKGLEWVSGIGTGGATSYADSVKGRFTISRDNAKNSLYLQMNSLRAEDMAVYYCARGRYYFDYWGQGTLVTVSS VL: EIVLTQSPGTLSLSPGERATLSCRASQSVSNSYLAWYQQKPGQAPRLLIFGASSRAPGIPDRFSGSGSGTDFTLTISRLEPEDFAVYYCQQYDHSAGWTFGQGTKVEIK
